The supplement of paper PMC9112550, “Optimization of the antimicrobial peptide Bac7 by deep mutational scanning” (BMC Biology, 2022)

Tested on: Escherichia coli TOP10
Assay: shrunken log2 fold change of peptide-encoding DNA abundance (4.5 h post-induction vs induction); higher = less antimicrobial activity (less host growth inhibition)
Conditions: time post-induction: 4.5 h; library: site-saturation at positions 5, 18, 19, 20
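Note: peptides expressed intracellularly from a pBAD plasmid library in pooled LB shake-flask culture, induced with 0.3% L-arabinose, DNA abundance read by NGS, three biological replicates, DESeq2 with apeglm shrinkage.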

| Sequence | shrunken log2 fold change |
| --- | --- |
| RRIRYRPPRLPRPRPRPVRFPRP | -0.0685 |
| RRIRLRPPRLPRPRPRPWFQPRP | -0.0555 |
| RRIRSRPPRLPRPRPRPFVDPRP | -0.228 |
| RRIRDRPPRLPRPRPRPQAVPRP | 0.164 |
| RRIRWRPPRLPRPRPRPMVNPRP | -0.0548 |
| RRIRKRPPRLPRPRPRPDKEPRP | -0.2 |
| RRIRFRPPRLPRPRPRPEQKPRP | 0.341 |
| RRIRRRPPRLPRPRPRPDQYPRP | -0.126 |
| RRIRIRPPRLPRPRPRPYVKPRP | -0.881 |
| RRIRLRPPRLPRPRPRPNVFPRP | -0.301 |
| RRIRRRPPRLPRPRPRPRYLPRP | -0.0373 |
| RRIRQRPPRLPRPRPRPMRKPRP | 0.0266 |
| RRIRDRPPRLPRPRPRPTLYPRP | 0.26 |
| RRIRFRPPRLPRPRPRPGHQPRP | -0.233 |
| RRIRKRPPRLPRPRPRPESGPRP | 0.918 |
| RRIRTRPPRLPRPRPRPEMPPRP | -0.0682 |
| RRIRHRPPRLPRPRPRPDHDPRP | 0.0111 |
| RRIRRRPPRLPRPRPRPCCWPRP | 0.322 |
| RRIRKRPPRLPRPRPRPFHCPRP | -0.0128 |
| RRIRRRPPRLPRPRPRPKWAPRP | 0.0296 |
| RRIRLRPPRLPRPRPRPTTEPRP | -0.00894 |
| RRIRSRPPRLPRPRPRPGICPRP | 0.137 |
| RRIRGRPPRLPRPRPRPDIQPRP | 1.9 |
| RRIRWRPPRLPRPRPRPLLFPRP | -0.0366 |
| RRIRQRPPRLPRPRPRPQYKPRP | -0.314 |

| Sequence | shrunken log2 fold change |
| --- | --- |
| RRIRMRPPRLPRPRPRPAAWPRP | 0.11 |
| RRIRKRPPRLPRPRPRPPGIPRP | 0.279 |
| RRIRSRPPRLPRPRPRPRKIPRP | 0.12 |
| RRIRRRPPRLPRPRPRPFSAPRP | -0.274 |
| RRIRCRPPRLPRPRPRPRSCPRP | -0.159 |
| RRIRSRPPRLPRPRPRPPMFPRP | 0.0179 |
| RRIRMRPPRLPRPRPRPSCHPRP | -0.0523 |
| RRIRTRPPRLPRPRPRPNWLPRP | 0.295 |
| RRIRLRPPRLPRPRPRPNAWPRP | 0.0821 |
| RRIRTRPPRLPRPRPRPSNDPRP | -0.557 |
| RRIRRRPPRLPRPRPRPKFKPRP | -0.046 |
| RRIRRRPPRLPRPRPRPDNKPRP | -0.233 |
| RRIRVRPPRLPRPRPRPYDFPRP | -0.00884 |
| RRIRLRPPRLPRPRPRPVFKPRP | -0.134 |
| RRIRCRPPRLPRPRPRPRLFPRP | 0.437 |
| RRIRTRPPRLPRPRPRPHPGPRP | 0.106 |
| RRIRTRPPRLPRPRPRPCCPPRP | -0.305 |
| RRIRTRPPRLPRPRPRPDYQPRP | -0.0545 |
| RRIRNRPPRLPRPRPRPQREPRP | -0.00141 |
| RRIRFRPPRLPRPRPRPPRVPRP | 0.605 |
| RRIRSRPPRLPRPRPRPCMMPRP | 0.0683 |
| RRIRHRPPRLPRPRPRPWHDPRP | -0.00088 |
| RRIRRRPPRLPRPRPRPNKCPRP | -0.634 |
| RRIRVRPPRLPRPRPRPCTTPRP | 0.167 |
| RRIRERPPRLPRPRPRPPEFPRP | 0.127 |

| Sequence | shrunken log2 fold change |
| --- | --- |
| RRIRERPPRLPRPRPRPVFEPRP | -0.151 |
| RRIRGRPPRLPRPRPRPNIRPRP | -0.135 |
| RRIRNRPPRLPRPRPRPFTFPRP | -0.628 |
| RRIRTRPPRLPRPRPRPRSNPRP | 0.186 |
| RRIRKRPPRLPRPRPRPREFPRP | 0.607 |
| RRIRIRPPRLPRPRPRPTYWPRP | -0.421 |
| RRIRVRPPRLPRPRPRPKKGPRP | 0.13 |
| RRIRFRPPRLPRPRPRPPLLPRP | -0.0704 |
| RRIRARPPRLPRPRPRPSSSPRP | 0.185 |
| RRIRVRPPRLPRPRPRPYQNPRP | -0.141 |
| RRIRQRPPRLPRPRPRPFSVPRP | -0.199 |
| RRIRRRPPRLPRPRPRPCQNPRP | -0.0482 |
| RRIRIRPPRLPRPRPRPWRDPRP | -0.0858 |
| RRIRFRPPRLPRPRPRPFVWPRP | -0.0869 |
| RRIRFRPPRLPRPRPRPLWHPRP | -0.248 |
| RRIRTRPPRLPRPRPRPLVFPRP | -0.214 |
| RRIRVRPPRLPRPRPRPIGKPRP | -0.129 |
| RRIRQRPPRLPRPRPRPATIPRP | -0.123 |
| RRIRHRPPRLPRPRPRPTLTPRP | -0.188 |
| RRIRCRPPRLPRPRPRPCIFPRP | -0.396 |
| RRIRIRPPRLPRPRPRPESHPRP | -0.0755 |
| RRIRGRPPRLPRPRPRPKTLPRP | 0.872 |
| RRIRVRPPRLPRPRPRPFIQPRP | -0.449 |
| RRIRERPPRLPRPRPRPADEPRP | -0.032 |
| RRIRDRPPRLPRPRPRPDSFPRP | -0.00691 |

| Sequence | shrunken log2 fold change |
| --- | --- |
| RRIRARPPRLPRPRPRPTTLPRP | 0.067 |
| RRIRPRPPRLPRPRPRPNSIPRP | -0.254 |
| RRIRDRPPRLPRPRPRPTQWPRP | 0.0594 |
| RRIRPRPPRLPRPRPRPSKTPRP | 0.0619 |
| RRIRFRPPRLPRPRPRPFSLPRP | -0.375 |
| RRIRQRPPRLPRPRPRPGDMPRP | -0.164 |
| RRIRRRPPRLPRPRPRPERGPRP | 0.798 |
| RRIRPRPPRLPRPRPRPQHEPRP | -0.146 |
| RRIRARPPRLPRPRPRPSMIPRP | -0.128 |
| RRIRMRPPRLPRPRPRPWFAPRP | 0.18 |
| RRIRIRPPRLPRPRPRPMAGPRP | 0.022 |
| RRIRWRPPRLPRPRPRPDPMPRP | 0.444 |
| RRIRARPPRLPRPRPRPNHRPRP | 0.00751 |
| RRIRQRPPRLPRPRPRPWREPRP | -0.0373 |
| RRIRNRPPRLPRPRPRPVSQPRP | -0.0152 |
| RRIRDRPPRLPRPRPRPEKWPRP | -0.00325 |
| RRIRYRPPRLPRPRPRPPDEPRP | 0.0398 |
| RRIRRRPPRLPRPRPRPYGLPRP | -0.0176 |
| RRIRPRPPRLPRPRPRPVKHPRP | -0.0566 |
| RRIRHRPPRLPRPRPRPSGQPRP | -0.17 |
| RRIRRRPPRLPRPRPRPMHFPRP | 0.0461 |
| RRIRDRPPRLPRPRPRPIVNPRP | -0.0751 |
| RRIRWRPPRLPRPRPRPRWWPRP | 0.0648 |
| RRIRHRPPRLPRPRPRPFRFPRP | -0.132 |
| RRIRNRPPRLPRPRPRPHWGPRP | -0.0266 |

| Sequence | shrunken log2 fold change |
| --- | --- |
| RRIRNRPPRLPRPRPRPHPYPRP | -0.654 |
| RRIRVRPPRLPRPRPRPGAGPRP | 0.284 |
| RRIRARPPRLPRPRPRPWVHPRP | -0.162 |
| RRIRCRPPRLPRPRPRPFQKPRP | 0.0129 |
| RRIRYRPPRLPRPRPRPFYGPRP | 0.0392 |
| RRIRHRPPRLPRPRPRPDRIPRP | -0.495 |
| RRIRIRPPRLPRPRPRPHDSPRP | -0.398 |
| RRIRRRPPRLPRPRPRPYFMPRP | -0.353 |
| RRIRQRPPRLPRPRPRPWVWPRP | 0.0723 |
| RRIRLRPPRLPRPRPRPDPEPRP | 0.0928 |
| RRIRDRPPRLPRPRPRPLFMPRP | 0.154 |
| RRIRLRPPRLPRPRPRPKQYPRP | -0.661 |
| RRIRNRPPRLPRPRPRPATDPRP | 0.14 |
| RRIRGRPPRLPRPRPRPSIYPRP | 0.302 |
| RRIRRRPPRLPRPRPRPICRPRP | 0.378 |
| RRIRLRPPRLPRPRPRPEKMPRP | -0.35 |
| RRIRARPPRLPRPRPRPPHMPRP | 0.661 |
| RRIRARPPRLPRPRPRPGYEPRP | 0.246 |
| RRIRWRPPRLPRPRPRPTMPPRP | 0.256 |
| RRIRKRPPRLPRPRPRPDNPPRP | -0.0237 |
| RRIRERPPRLPRPRPRPFCNPRP | -0.366 |
| RRIRHRPPRLPRPRPRPMCRPRP | -0.0487 |
| RRIRCRPPRLPRPRPRPDVVPRP | -0.00174 |
| RRIRHRPPRLPRPRPRPPDQPRP | 0.594 |
| RRIRLRPPRLPRPRPRPKKFPRP | -0.322 |

| Sequence | shrunken log2 fold change |
| --- | --- |
| RRIRPRPPRLPRPRPRPQKRPRP | 0.151 |
| RRIRTRPPRLPRPRPRPWCWPRP | -0.0632 |
| RRIRRRPPRLPRPRPRPVNEPRP | 0.196 |
| RRIRLRPPRLPRPRPRPWYIPRP | -0.137 |
| RRIRFRPPRLPRPRPRPMDRPRP | 0.0616 |
| RRIRVRPPRLPRPRPRPDDMPRP | -0.239 |
| RRIRHRPPRLPRPRPRPFKHPRP | -0.454 |
| RRIRNRPPRLPRPRPRPMMHPRP | -0.25 |
| RRIRLRPPRLPRPRPRPWFCPRP | -0.195 |
| RRIRWRPPRLPRPRPRPWWRPRP | 0.0782 |
| RRIRMRPPRLPRPRPRPIPIPRP | 0.138 |
| RRIRMRPPRLPRPRPRPLKFPRP | 0.426 |
| RRIRPRPPRLPRPRPRPPSGPRP | 0.527 |
| RRIRHRPPRLPRPRPRPDSEPRP | -0.0112 |
| RRIRHRPPRLPRPRPRPLFGPRP | -0.0987 |
| RRIRLRPPRLPRPRPRPCKTPRP | 0.0231 |
| RRIRTRPPRLPRPRPRPTAKPRP | -0.143 |
| RRIRLRPPRLPRPRPRPEVEPRP | 0.0199 |
| RRIRMRPPRLPRPRPRPLQAPRP | 2.15 |
| RRIRERPPRLPRPRPRPFMGPRP | -0.0195 |
| RRIRYRPPRLPRPRPRPFMKPRP | -0.272 |
| RRIRIRPPRLPRPRPRPFDYPRP | -0.182 |
| RRIRHRPPRLPRPRPRPKMLPRP | -0.353 |
| RRIRPRPPRLPRPRPRPINIPRP | -1.15 |
| RRIRHRPPRLPRPRPRPMTRPRP | -0.0247 |
